± gives the standard deviation.
Assay: protein stability index of a GFP-peptide fusion (GPS, HEK-293T) (PSI 1-6); higher = more stable
[1] = treatment: DMSO, c terminus: a fixed tail appended
[2] = treatment: MLN4924 1 uM, 8 h, c terminus: a fixed tail appended
[3] = treatment: DMSO, c terminus: native
[4] = treatment: MLN4924 1 uM, 8 h, c terminus: native
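Note: 24-mer peptide tiles fused after GFP, lentivirally expressed, FACS-sorted into six equal bins by GFP/DsRed ratio, decoded by Illumina sequencing, PSI is the read-weighted mean bin number.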

Sequence	protein stability index [1]	protein stability index [2]	protein stability index [3]	protein stability index [4]
APTPPSLSQRVMCNDLFKVNPFQL [TIAF1]	2.11 ± 0.25	2.25 ± 0.28		
TYNLTEVDKYVNSFVLKNFPALLS [KLHL13]	2.08 ± 0.26	2.28 ± 0.23		
EHYWEVRYEPDSKAFGVGVAYRSL [FSD1]	2.06 ± 0.29	2.25 ± 0.33		
HGLAFWFDVAFIGSIMTVWLSTAP [CARM1]	2.78 ± 0.33	3.1 ± 0.53		
SSSSGRLSEPDPSHTLEERVVHWY [SMOC2]	3.14 ± 0.38	3.1 ± 0.22		
LKSMDKNGTMTIDWNEWRDYHLLH [SLC25A25]	2.27 ± 0.05	2.19 ± 0.28		
KKHEFLTSVLDALSTDMVHAASDP [SMOC2]	3.33 ± 0.24	3.46 ± 0.18		
LLLELKGLQEEPVEGFRVTLVDEG [CDC34]	2.64 ± 0.29	2.66 ± 0.21		
DQDEGEWGLDQEQVFSLGDGVSGG [ZBED1]	5.57 ± 0.17	5.42 ± 0.12		
VAPQDQCKLTCQAQALGYYYVLEP [ADAMTS4]	2.58 ± 0.22	2.4 ± 0.04		
AAHLKLTSIEEGYERSFIHKIKHK [IQUB]	3.18 ± 0.24	3.2 ± 0.2		
KEVVKKHSQFIGYPITLYLEKERE [HSP90AB1]		3.32 ± 0.24		
TLEFENVQVLTMGNDTSPSEGTNL [HNF4A]	4.69 ± 0.18	4.52 ± 0.39		
GQYATTKGISQTNLITTVTPEKKA [EPB41L3]	5.07 ± 0.2	5.11 ± 0.17		
IRKGESRSEALAVDGAGKPGAEEA [CHGA]	5.48 ± 0.12	5.43 ± 0.31		
QQPPPPRRAGAACTLRQKLIFSPC [WEE1]	2.79 ± 0.46	2.94 ± 0.099		
NKALSIILHLICLLEKVPCTLEQD [FEM1C]	2.87 ± 0.25	3.13 ± 0.71		
QKNFGLYVQEKRDGLKRRQQLEEE [RAD54B]	4.7 ± 0.32	4.66 ± 0.2		
KVCLLGDTGVGKSSIVWRFVEDSF [RAB22A]	2.28 ± 0.22	2.48 ± 0.68		
LRKREKAEEKERRRKEYDALKAAK [LRRC59]	4.66 ± 0.4	4.79 ± 0.31		
KGKLMVCYETLPRGQCLLYNWEEE [SPAG8]	2.55 ± 0.32	2.7 ± 0.34		
ADLLLLTDLKTLCCEFLEGCIAAE [GAN]	2.15 ± 0.42	2.16 ± 0.58		
SKIFTTLDPASLAWLTEEEPEPAE [DDIT3]	5.14 ± 0.54	5.11 ± 0.27		

Sequence	protein stability index [1]	protein stability index [2]	protein stability index [3]	protein stability index [4]
YSFVLTNRGNSAGGLQHRVTAKTA [PTPRD]	2.81 ± 0.29	2.97 ± 0.28		
RYSSDTTPLLNGSSQDRMFETMAI [GOSR1]	3.29 ± 0.77	3.27 ± 0.24		
RTSCSSRPCVPPSCHGYTLPGACN [KRT33B]	2.67 ± 0.3	2.56 ± 0.17		
GHPYRGASQFLASASSSTTCCEST [IRX6]	4.24 ± 0.19	4.3 ± 0.22		
QPGLSFLNLGSGTGYLSSMVGLIL [PCMTD2]	2.12 ± 0.15	2.28 ± 0.27		
KRLYDKAAKMYHQLKKCETRKLSP [SMG5]	2.28 ± 0.18	2.38 ± 0.39		
GGLSPVTNLTVTMDQLQGLGSDYE [CDC25A]	4.24 ± 0.38	4.48 ± 0.18		
NNPFAKGFRGSDDMELHRMSRMQS [TBX5]	4.15 ± 0.33	4.06 ± 0.22		
VKGMQRIVNQWSEKFSDEGDSDSA [DLC1]	4.68 ± 0.21	5.09 ± 0.29		
VKKNSAKSMGLKKKAFVWARNIGF [ACSBG2]	2.03 ± 0.12	2.24 ± 0.22		
ANFHLNDLEAPHEDDAEGEGEWD [TCF25]			5.63 ± 0.14	5.39 ± 0.22
TLNSIWNVEDHINPKLPNISLDVL [POMT2]	2.31 ± 0.092	2.48 ± 0.17		
FLVVREPPRGAVERHSDLPPLNPT [SPNS1]	2.85 ± 0.39	3.09 ± 0.34		
FSAEFLKVFIPSLFLSHVLALGLG [BNIP3L]	3.57 ± 0.21	2.9 ± 0.93		
YRQVPGSDPARYEFLWGPRAHAEI [MAGEA10]	2.73 ± 0.24	2.91 ± 0.26		
MRSNYPPPLSSAALRGAGPTRRN [C6orf223]			3.1 ± 1.3	3.18 ± 0.51
KVLLCHGELRSKSGHKLYIFLFQD [NET1]	2.62 ± 0.55	2.57 ± 0.57		
EYQCQNLYQLEGNNQITCRNGQWS [CFHR2]	3.09 ± 0.14	3.03 ± 0.21		
VNSYYSSPAQQVPKNPALEAFLAQ [TOR1AIP2]	3.45 ± 0.36	3.66 ± 0.25		
SRNFGVRNQGNFSVVGTVLAATQA [ZC2HC1C]	2.96 ± 0.19	3.16 ± 0.12		
VKWMVVFAIGVCTGLVGLFVDFFV [CLCN6]	2.16 ± 0.31	2.42 ± 0.46		
QELPPYNGFGLVEDSAQNCFALIP [EFHC1]	3.38 ± 0.18	3.4 ± 0.24		

Reference: the supplement of paper PMC10567573
